Here are results for 2 substances from US20100167342.

For the data set, the system named is GlyExendin-4 (Glycine-extended Exendin-4, Exendin-4 precursor with C-terminal glycine).

“Pichia pastoris homolog of Saccharomyces cerevisiae dipeptidyl peptidase DAP2”: the “(N-2) impurity of GlyExendin-4 (HPLC of peptide expressed in DAP2-disrupted Pichia clone)” value was “This continued to show (N-2) impurity”.
Consider “Pichia pastoris homolog of Saccharomyces cerevisiae STE13 dipeptidyl peptidase”, for which the “N-terminal clipping of GlyExendin-4 (HPLC and LCMS of peptide expressed in STE13-disrupted clone D2)” value was “the expressed GlyExendin-4 when checked by HPLC and LCMS was not N-terminally clipped”.
